Reference: article PMC3520109 (mBio, 2012)

Legend:
43A-c = conditions: read-out: apparent Km; 100 mM citrate pH 6, 1 g/liter BSA, 50°C
purified protein = substrate: O=[N+]([O-])c1ccc(O[C@@H]2O[C@H](CO)[C@@H](O)[C@H](O)[C@H]2O)cc1; assay: purified protein; conditions: 100 mM citrate pH 6, 1 g/liter BSA, 50°C

Molecule | Km (43A-c) | Km (purified protein) | kcat (purified protein)
O=[N+]([O-])c1ccc(O[C@@H]2OC[C@@H](O)[C@H](O)[C@H]2O)cc1 [pNPX] | 600 µM |  | 
Bgl1C (Thermobifida fusca) (protein) TSQSTTPLGNLEETPKPDIRFPSDFVWGVATASFQIEGSTTADGRGPSIWDTFCATPGKVENGDTGDPACDHYNRYRDDVALMRELGVGAYRFSIAWPRIQPEGKGTPVEAGLDFYDRLVDCLLEAGIEPWPTLYHWDLPQALEDAGGWPNRDTAKRFADYAEIVYRRLGDRITNWNTLNEPWCSAFLGYASGVHAPGRQEPAAALAAAHHLMLGHGLAAAVMRDLAGQAGRSVRIGVAHNQTTVRPYTDSEADRDAARRIDALRNRIFTEPLVKGRYPEDLIEDVAAVTDYSFVQDGDLKTISANLDMMGVNFYNPSWVSGNRENGGSDRLPDEGYSPSVGSEHVVEVDPGLPVTAMGWPIDPTGLYDTLTRLANDYPGLPLYITENGAAFEDKVVDGAVHDTERIAYLDSHLRAAHAAIEAGVPLKGYFAWSFMDNFEWALGYGKRFGIVHVDYESQTRTVKDSGWWYSRVMRNGGIFGQE |  | 600 µM | 2.08 s⁻¹
